Data: PMC4749557 (2015)

T1: recombinant Mtgr1 NHR1 domain (residues 98–206) (mouse, UniProt O70374 98-206, H200K, biotin (biotin-acceptor tag))
T1 sequence: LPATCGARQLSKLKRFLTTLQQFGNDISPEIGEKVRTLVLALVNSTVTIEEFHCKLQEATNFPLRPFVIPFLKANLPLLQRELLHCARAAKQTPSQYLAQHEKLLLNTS

B1: human PRDM14 (residues 238–487) (domain or fragment)
chain: LPQTLDKDSLQLPEGLCLMQTVFGEVPHFGVFCSSFIAKGVRFGPFQGKVVNASEVKTYGDNSVMWEIFEDGHLSHFIDGKGGTGNWMSYVNCARFPKEQNLVAVQCQGHIFYESCKEIHQNQELLVWYGDCYEKFLDIPVSLQVTEPGKQPSGPSEESAEGYRCERCGKVFTYKYYRDKHLKYTPCVDKGDRKFPCSLCKRSFEKRDRLRIHILHVHEKHRPHKCSTCGKCFSQSSSLNKHMRVHSGDR
modifications: biotin (biotin-acceptor tag)
B2: recombinant Prdm14 pre-SET+SET domains (residues 184–373) (domain or fragment)
chain: GFNFTEEELSFVLYGAIASPEHPTDLQHAISGILVPTESSGSNHLHKTLDKDSLQLPEGLCLMQTSFGDVPHFGVFCSDFIAKGVRFGPFRGRVVNASEVKAHRDNSRMWEIFEDGHLSHFIDGKGSGNWMSYVNCARFPKEQNLLAVQHQGQIFYESCRDIQRNQELLVWYGNGYEKFLGVPMNLRVTE
modifications: biotin (biotin-acceptor tag)
B3: Mb(hPRDM14_S4), purified monobody (designed binder)
chain: GSVSSVPTKLEVVAATPTSLLISWDAPAVTVDLYFITYGETGGNSPVQKFTVPGSKSTATISGLKPGVDYTITVYAQYYYRGWYVGSPISINYRT
modifications: biotin

Tests used:
[1] = molecular target: Mb(hPRDM14_S14), purified monobody (biotin)
[2] = molecular target: T1, recombinant Mtgr1 NHR1 domain (residues …); assay: Mtgr1 immobilized on beads
[3] = molecular target: T1, recombinant Mtgr1 NHR1 domain (residues …); assay: Prdm14 immobilized on beads
[4] = molecular target: B1

| Kd [1] | Kd [2] | Kd [3] | Kd [4] | Binder |
| --- | --- | --- | --- | --- |
| 2.8 nM | – | – | – | B1 |
| 1.7 nM | 11 nM | 7.1 nM | – | B2 |
| – | – | – | 38 nM | B3 |
